Source: PMC6265302, “Widespread bacterial lysine degradation proceeding via glutarate and L-2-hydroxyglutarate” (Nature Communications, 2018)

Key:
[1] = substrate: NCCCCCN; test: purified protein; type: biochemical, Escherichia coli; settings: coupled with PatD (rate-limiting dehydrogenase), 5 mM α-ketoglutarate, 500 µM NAD+, pH 8.0, room temperature
[2] = substrate: NCCCCN; test: purified protein; type: biochemical, Escherichia coli; settings: coupled with PatD (rate-limiting dehydrogenase), 5 mM α-ketoglutarate, 500 µM NAD+, pH 8.0, room temperature
[3] = substrate: NCCCCC(=O)O; test: purified protein; type: biochemical, Escherichia coli; settings: coupled with GabD (rate-limiting dehydrogenase), 5 mM α-ketoglutarate, 500 µM NADP+, pH 8.0, room temperature
[4] = substrate: NCCCC(=O)O; test: purified protein; settings: coupled with GabD (rate-limiting dehydrogenase), 5 mM α-ketoglutarate, 500 µM NADP+, pH 8.0, room temperature
[5] = substrate: O=C(O)CCC(=O)C(=O)O; test: O2 consumption, Clark electrode; type: biochemical, Escherichia coli; settings: 5 mM glutarate, 4 µM Fe(NH4)2SO4, 400 µM ascorbate, MOPS pH 7.2, 30 °C
[6] = substrate: O=C(O)CCCC(=O)O; test: O2 consumption, Clark electrode; type: biochemical, Escherichia coli; settings: 1 mM α-ketoglutarate, 4 µM Fe(NH4)2SO4, 400 µM ascorbate, MOPS pH 7.2, 30 °C

B1: PatA (Escherichia coli K-12) (protein)
chain: MNRLPSSASALACSAHALNLIEKRTLDHEEMKALNREVIEYFKEHVNPGFLEYRKSVTAGGDYGAVEWQAGSLNTLVDTQGQEFIDCLGGFGIFNVGHRNPVVVSAVQNQLAKQPLHSQELLDPLRAMLAKTLAALTPGKLKYSFFCNSGTESVEAALKLAKAYQSPRGKFTFIATSGAFHGKSLGALSATAKSTFRKPFMPLLPGFRHVPFGNIEAMRTALNECKKTGDDVAAVILEPIQGEGGVILPPPGYLTAVRKLCDEFGALMILDEVQTGMGRTGKMFACEHENVQPDILCLAKALGGGVMPIGATIATEEVFSVLFDNPFLHTTTFGGNPLACAAALATINVLLEQNLPAQAEQKGDMLLDGFRQLAREYPDLVQEARGKGMLMAIEFVDNEIGYNFASEMFRQRVLVAGTLNNAKTIRIEPPLTLTIEQCELVIKAARKALAAMRVSVEEA
notes: purified enzyme, cloning not described in main text; assayed coupled with PatD
- Km [1]: 370 ± 50 µM
- Km [2]: 1430 ± 70 µM

B2: GabT (Escherichia coli K-12) (protein)
chain: MNSNKELMQRRSQAIPRGVGQIHPIFADRAENCRVWDVEGREYLDFAGGIAVLNTGHLHPKVVAAVEAQLKKLSHTCFQVLAYEPYLELCEIMNQKVPGDFAKKTLLVTTGSEAVENAVKIARAATKRSGTIAFSGAYHGRTHYTLALTGKVNPYSAGMGLMPGHVYRALYPCPLHGISEDDAIASIHRIFKNDAAPEDIAAIVIEPVQGEGGFYASSPAFMQRLRALCDEHGIMLIADEVQSGAGRTGTLFAMEQMGVAPDLTTFAKSIAGGFPLAGVTGRAEVMDAVAPGGLGGTYAGNPIACVAALEVLKVFEQENLLQKANDLGQKLKDGLLAIAEKHPEIGDVRGLGAMIAIELFEDGDHNKPDAKLTAEIVARARDKGLILLSCGPYYNVLRILVPLTIEDAQIRQGLEIISQCFDEAKQ
notes: full ORF, N-terminal 6xHis tag (pET28a), expressed in E. coli BL21(DE3); assayed coupled with GabD
- Km [3]: 439 ± 29 µM
- Km [4]: 197 ± 27 µM

B3: CsiD (Escherichia coli K-12) (protein)
chain: MNALTAVQNNAVDSGQDYSGFTLTPSAQSPRLLELTFTEQTTKQFLEQVAEWPVQALEYKSFLRFRVAKILDDLCANQLQPLLLKTLLNRAEGALLINAVGVDDVKQADEMVKLATAVAHLIGRSNFDAMSGQYYARFVVKNVDNSDSYLRQPHRVMELHNDGTYVEEITDYVLMMKIDEQNMQGGNSLLLHLDDWEHLDNYFRHPLARRPMRFAAPPSKNVSKDVFHPVFDVDQQGRPVMRYIDQFVQPKDFEEGVWLSELSDAIETSKGILSVPVPVGKFLLINNLFWLHGRDRFTPHPDLRRELMRQRGYFAYASNHYQTHQ
notes: full ORF, N-terminal 6xHis tag (pET28a), expressed in E. coli BL21(DE3); Fe(II); homotetramer
- Km [5]: 100 ± 7 µM
- Km [6]: 650 ± 20 µM
